In the nanobody polyreactivity screen of Harvey et al. (2022):

Assay: yeast display, Sf9 membrane polyspecificity reagent, FACS + sequencing; frameworks hold sequencing errors
How it was run: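 Sorting gates, low and high (top ~1%), were placed on anti-HA fluorescence to track expression and on streptavidin fluorescence to track reagent binding. A clone's polyreactivity label is taken from the gate it came out of. The reagent was 10% biotinylated, detergent-solubilized Sf9 membrane, applied for 1 hour at 4 °C to galactose-induced yeast display cells.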

Sequence | polyreactivity (PSR sort gate)
QVQLVESGGGLVQAGGSLRLSCAASGRIFTKYAMGWYRQAPGKERELVAAITTSGGSTYYADSVKGRFTISRDNAKNTVYLQMNSLKPEDTAVYYCAARTYHRYDYWGQGTQVTVSS | high polyreactivity
QVQLVESGVGLVQARGSLRLSSAASGITLPKYAMGWYRQEHGKERELVAAISRRGGITYYADSVKGRFTISRDNAKNTVYVQMNSLKPEDTAVYYCAADRTDTRGFDYWGQGTQVTVSS | high polyreactivity
QVQLVDSGGGLVQAGGSLRLSCAASGSIFQQYAMGWYRQAPGKESELVAAISWGDGSTYYADSVKGRFPISRDNAKNTVYLQMNSLKPEDTAVYYCNAYASAPLWSLEDDYWGQGTQVTVSS | low polyreactivity
QVQLVESAGGLVQAGGSLSLICAASGFIFDSYAMGWSRQAPGKERELVAAIDKRGGRTYYADSEKGRFTISRDNAKNTVYLQMNSLKPEDTAVYFCAADDYTGYGYWGQGTQVTVSS | high polyreactivity
QVQLVESGGGLVQAGGSLRLSCAASGSTLAGYAMGWYRQAPGKERELVATISWSDGSTSYADSVKGRFTFSRDNAKNTVYLQLNSLKPEDTAVSYCAADAITNYDGRKSRRSYSAYDYWGQGTQVTVSS | low polyreactivity
QVQLVESGGGLVQAGGSLRLSCAASGSIVSTYAMGWYSQAPGKERELVAAITSTGSMNYADSVKGRFTISRDNAKNTVYLQMNSLKPEDTAVYYCAARYAGPSPTDTGHDYWGQGTQVTVSS | low polyreactivity
QVQHVESGRGLVQAGGSLRLSCAGSGFIFYKYAMGWYRQAPGKERELVAAITRGGSTNYADSVKGRFTISRDTAKNTVFLQMNSLKPEDTAVYYCAAGNRYGVRQLYQIVTRYYWGQGTQVTVSS | high polyreactivity
QVQLVESGGGLVQAGGSLRLSCAASGRTFTQNAMGWYRQAPGKERELVAAISSGGRTYYADSVKGRFTISRDNAKNTVYLQMNSLKPEDTAVYYCNAGGGRRMYWGLGTQVTVSS | high polyreactivity
QVQLVESGGGLVQAGGSLRLSCAASGLILYYYAMGWYRQAPGKERELVAAISRRDGDTYYADSVKGRFTISRDNAKNTVYLQMNSLKPEDTAVYYCAAERRWSWVVRDDYWGQGTQVTVSS | low polyreactivity
QVQLVESGGGLLQAGGSLRLSCAASGITFYLYAMGWYRQAPGKVRELVAAITKSGASTYYADSVKGRFTISRDNAKNTVYLQMNSLKPEDTAVYYCAAVLQSGYGYEYWGQGTQVTVSS | high polyreactivity
QVQLVESGGGLVQAGGSLRLSCAASGRIFSVNAMGWYRQAPGKERELVAAITSGGRTNYADSVKGRFTISRDNAKNTFYLQMNSLKPEDTAVYYCAAPYLKGGEDDYWGQGTQVTVSS | high polyreactivity
QVQLVESGGGLVQAGGSLRLSCAASGSIFYYNAMGWYRQAPGKERELVAAIRRSGGRTYYADSVKGRFTISRDNAKNTVYLQMNSLKPEDTAVYYCAAVHYDRVTGQVDHDYWGQGTQVTVSS | high polyreactivity
QVQLVESGGGLVQAGGSLRLSCAASGNILEYNAMGWYRQAPGKEREMVAAISRGGITNYADSVKGRFTISRDNAKNTVYLQMNCLKPEDTAVYYCATRWIGYTSQWDHFEYDYWGQGTQVTVSS | low polyreactivity
QDQLGESGGGLVQAGGSLRLSCAASGSIFETYVMGWYRQAPGKERELVAAINSGGSTNYADSVKGRFTISRDNAKNTVYLQMNSLKAEDTAVYYCNADWFTPAQPWYRYFIRYDYWGQGTQVTVSS | low polyreactivity
QVQLVESGGGLVQAGGSLRLSCAASGRIFAVYAMGWYRQAAGKERELVAAITSTGSTNYADSVKGRFTISRDNAKNTVYLQMNSLKPEDTAVYYCAKRRHSSWLRYNYWGQGTQVTVSS | low polyreactivity
QVQLVESGGGLVEEGGSLRLSCAASGSIFYRNDMGWYRQAPGKERELVAAISWSGGRTYYADSVKGRFTISRDNAKNTVYLQMNSLKPEDTAVYYCAAFRHRQSSDNGYDYWGQGTQVTVSS | high polyreactivity
QVQLVESGGGLVQAGGSLRLSCAASGSIFTYYAMGWYRQAPGKERELVAAISRRGGSTYYAVSVKGRFTISRDNAKNTVYLQMNSLKPEDTAVYYCNKVAYPRYYTGVNEFDYWGQGTQVTVSS | high polyreactivity
QVQMQERAAWCRRAGSLRLSCAASGNITDYYFMSWYRQAPGKERELVAAIAPGSNTYYADSVKGRFTISRDNAKNTVYLQMNSLKPEDTAVCFCAANSTQYTWFDYWGQGTQVPVSS | low polyreactivity
QVQLVESGGGLVQAGGSLRLSCSASGRTFNKYAMGWYRQAPGKERELVAAISRSGGSTYYADSVKGRFTISRDNAKNTVYLQMNSLKPEDTAVYYCNAAYFGQHVGTGFDYWGQGTQVTVSS | high polyreactivity
QVQLVESGGGLVQAGGSLRLSCAASGRISASYAMGWYRQAPGKERELVAAITGSGGSTYYADSVKGRFTISRDNAKNTVYVQMNSLNPEDTAVYYCAADPGWAWWVLNYWVQGTQVTVSS | low polyreactivity
QVQLVESGGGLVQAGGSLRLSCAASGFTFEWNTMGWYRPAPGKERELVARINWSSGRTYYADSVKGRFTISRDNAKNTVYLQMNSLKPEDTAVYYCAADTYDWRTGYKDDYWGQGTQVTVSS | high polyreactivity
QVQLVESGGGLVLAGGSLRLSCAASGNILIGNVMGWYRPAPGKERELVAAITSGGDTYYADSVKGRFTISRDNAKNTVYLQMNSLNPEDTAVYYCAADRPGQPKYEYWRQGTQVTVSS | low polyreactivity
